Laboratory results published in patent US20190119357A1 (MODERNATX, published 2019).

B1: SQT(MDM2)(L2).P3848.cV5 (designed binder)
chain: MIPRGLSEAKPATPEIQEIVDKVKPQLEEKTNETYGKLEAVQYKTQVLASTNYYIKVRAGDNKYMHLKVFNGPLTFEHYWAQLTSPGQNADRVLTGYQVDKNKDDELTGFGKPIPNPLLGLDST
notes: also called P3848 peptide in Loop 2 of SQT; SQT-MDM2 construct 5
B2: SQT(MDM2)(L2).P1E6W.cV5 (designed binder)
chain: MIPRGLSEAKPATPEIQEIVDKVKPQLEEKTNETYGKLEAVQYKTQVLASTNYYIKVRAGDNKYMHLKVFNGPETFEHWWAQLTSPGQNADRVLTGYQVDKNKDDELTGFGKPIPNPLLGLDST
notes: also called P1E6W peptide in Loop 2 of SQT; SQT-MDM2 construct 6
B3: SQT(MDM2)(nt).P6W.cV5 (designed binder)
chain: MIPRLTFEHWWAQLTSGLSEAKPATPEIQEIVDKVKPQLEEKTNETYGKLEAVQYKTQVLASTNYYIKVRAGDNKYMHLKVFNGPPGQNADRVLTGYQVDKNKDDELTGFGKPIPNPLLGLDST
notes: also called P6W peptide in N-terminus of SQT; SQT-MDM2 construct 7
B4: SQT(MDM2)(nt).pMI.cV5 (designed binder)
chain: MIPRTSFAEYWNLLSPGLSEAKPATPEIQEIVDKVKPQLEEKTNETYGKLEAVQYKTQVLASTNYYIKVRAGDNKYMHLKVFNGPPGQNADRVLTGYQVDKNKDDELTGFGKPIPNPLLGLDST
notes: also called pMI peptide in N-terminus of SQT; SQT-MDM2 construct 4
B5: SQT(MDM2)(nt).pDIQ.cV5 (designed binder)
chain: MIPRETFEHWWSQLLSGLSEAKPATPEIQEIVDKVKPQLEEKTNETYGKLEAVQYKTQVLASTNYYIKVRAGDNKYMHLKVFNGPPGQNADRVLTGYQVDKNKDDELTGFGKPIPNPLLGLDST
notes: also called pDIQ peptide in N-terminus of SQT; SQT-MDM2 construct 3
B6: SQT(MDM2)(nt).P7041.cV5 (designed binder)
chain: MIPRLTFEEYWAQLLSAAGLSEAKPATPEIQEIVDKVKPQLEEKTNETYGKLEAVQYKTQVLASTNYYIKVRAGDNKYMHLKVFNGPPGQNADRVLTGYQVDKNKDDELTGFGKPIPNPLLGLDST
notes: also called P7041 peptide in N-terminus of SQT; SQT-MDM2 construct 2

Target: T1, MDM2 (UniProt Q00987 1-491, limits assumed)
T1 construct: Endogenous MDM2 of HCT116 cells
Assay: anti-V5 immunoprecipitation from transfected HCT116 cell lysates, blot probed with anti-MDM2

T1 sequence (Q00987 whole entry): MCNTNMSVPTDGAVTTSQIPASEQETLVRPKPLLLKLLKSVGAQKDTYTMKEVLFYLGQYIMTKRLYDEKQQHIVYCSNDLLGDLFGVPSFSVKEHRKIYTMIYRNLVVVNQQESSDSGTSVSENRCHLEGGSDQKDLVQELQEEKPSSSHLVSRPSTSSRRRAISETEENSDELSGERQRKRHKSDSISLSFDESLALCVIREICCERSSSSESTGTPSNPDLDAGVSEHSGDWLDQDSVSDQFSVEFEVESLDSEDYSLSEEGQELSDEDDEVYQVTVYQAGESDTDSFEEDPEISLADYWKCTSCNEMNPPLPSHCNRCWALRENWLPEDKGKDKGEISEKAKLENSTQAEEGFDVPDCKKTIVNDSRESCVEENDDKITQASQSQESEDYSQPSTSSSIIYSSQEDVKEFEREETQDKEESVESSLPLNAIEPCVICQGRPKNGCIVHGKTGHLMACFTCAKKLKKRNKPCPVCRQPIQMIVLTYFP

Binding result, binds:
B1
B2
B3
B4
B5
B6
